Read-outs that look alike come from different tables or passages of the source.
What was measured:
Assay in all cases: cell-based or functional assay
[1] = target: SARS-CoV-2 spike (S) protein, Omicron BA.2.75 (SARS-CoV-2) (UniProt P0DTC2)
[2] = target: SARS-CoV-2 spike (S) protein, Omicron BA.2 (SARS-CoV-2) (UniProt P0DTC2)
[3] = target: SARS-CoV-2 Omicron BA.1.1 spike (S) protein, pseudovirus construct (SARS-CoV-2) (UniProt P0DTC2)
[4] = target: SARS-CoV-2 Beta spike (S) protein (SARS-CoV-2) (UniProt P0DTC2)
[5] = target: SARS-CoV-2 spike (S) protein, Omicron BA.1 (SARS-CoV-2) (UniProt P0DTC2)
[6] = target: SARS-CoV-2 Omicron (BA.1) spike (S) protein, live virus isolate (SARS-CoV-2) (UniProt P0DTC2)
[7] = target: SARS-CoV-2 Omicron BA.3 spike (S) protein (SARS-CoV-2) (UniProt P0DTC2)
[8] = target: SARS-CoV-2 Omicron BA.1 spike (S) protein, pseudovirus construct (SARS-CoV-2) (UniProt P0DTC2)
[9] = target: SARS-CoV-2 Omicron BA.2 spike (S) protein, pseudovirus construct (SARS-CoV-2) (UniProt P0DTC2)
[10] = target: SARS-CoV-2 Omicron BA.1.1 spike (S) protein (SARS-CoV-2) (UniProt P0DTC2)
[11] = target: SARS-CoV-2 Alpha (B.1.1.7) spike (S) protein (SARS-CoV-2) (UniProt P0DTC2)
[12] = target: SARS-CoV-2 Gamma (P.1) spike (S) protein (SARS-CoV-2) (UniProt P0DTC2)
[13] = target: SARS-CoV-2 Delta spike (S) protein (SARS-CoV-2) (UniProt P0DTC2)
[14] = target: SARS-CoV-2 spike (S) protein, Omicron BA.4/5 (SARS-CoV-2) (UniProt P0DTC2)
[15] = target: SARS-CoV-2 Alpha spike (S) protein (SARS-CoV-2) (UniProt P0DTC2)
[16] = target: SARS-CoV-2 spike (S) protein, Omicron BA.1.1 (SARS-CoV-2) (UniProt P0DTC2)
[17] = target: SARS-CoV-2 Omicron BA.3 spike (S) protein, pseudovirus construct (SARS-CoV-2) (UniProt P0DTC2)
[18] = target: SARS-CoV-2 Omicron BA.1 spike (S) protein of the live isolate (SARS-CoV-2) (UniProt P0DTC2)
[19] = target: SARS-CoV-2 Beta (B.1.351) spike (S) protein (SARS-CoV-2) (UniProt P0DTC2)
[20] = target: SARS-CoV-2 spike (S) protein, Omicron BA.2.75 (SARS-CoV-2) (UniProt P0DTC2); remark: listed apart in the source
[21] = target: SARS-CoV-2 Gamma spike (S) protein (SARS-CoV-2) (UniProt P0DTC2)
[22] = target: SARS-CoV-2 spike (S) protein, Omicron BA.3 (SARS-CoV-2) (UniProt P0DTC2)
[23] = target: SARS-CoV-2 Victoria spike (S) protein (SARS-CoV-2) (UniProt P0DTC2)
[24] = target: SARS-CoV-2 Omicron BA.1 spike (S) protein of the pseudovirus (SARS-CoV-2) (UniProt P0DTC2)
[25] = target: SARS-CoV-2 Omicron BA.4/5 spike (S) protein (SARS-CoV-2) (UniProt P0DTC2)
[26] = target: SARS-CoV-2 spike (S) protein, Omicron BA.2 (SARS-CoV-2) (UniProt P0DTC2); remark: listed apart in the source
[27] = target: SARS-CoV-2 Omicron BA.2 spike (S) protein (SARS-CoV-2) (UniProt P0DTC2)
[28] = target: SARS-CoV-2 spike (S) protein, Victoria strain (SARS-CoV-2) (UniProt P0DTC2)
[29] = target: SARS-CoV-2 spike (S) protein, Omicron BA.2.3.20 (SARS-CoV-2) (UniProt P0DTC2)
[30] = target: SARS-CoV-2 spike (S) protein, Omicron BA.2.75.2 (SARS-CoV-2) (UniProt P0DTC2)
[31] = target: SARS-CoV-2 spike (S) protein, Omicron BA.4/5 (SARS-CoV-2) (UniProt P0DTC2); remark: listed apart in the source
[32] = target: SARS-CoV-2 spike (S) protein, Omicron BA.4.6 (SARS-CoV-2) (UniProt P0DTC2)
[33] = target: SARS-CoV-2 spike (S) protein, Omicron BA.2.75 (SARS-CoV-2) (UniProt P0DTC2); remark: listed apart in the source
[34] = target: SARS-CoV-2 spike (S) protein, Omicron BA.2 (SARS-CoV-2) (UniProt P0DTC2); remark: listed apart in the source
[35] = target: SARS-CoV-2 spike (S) protein, Omicron BJ.1 (SARS-CoV-2) (UniProt P0DTC2)
[36] = target: SARS-CoV-2 spike (S) protein, Victoria strain (SARS-CoV-2) (UniProt P0DTC2); remark: listed apart in the source

Sequence of Omi-42 (antibody) (VH): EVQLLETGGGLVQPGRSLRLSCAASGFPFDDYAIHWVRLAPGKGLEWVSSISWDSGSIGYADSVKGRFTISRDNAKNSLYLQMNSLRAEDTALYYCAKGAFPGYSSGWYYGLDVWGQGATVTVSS
Sequence of Omi-42 (antibody) (VL): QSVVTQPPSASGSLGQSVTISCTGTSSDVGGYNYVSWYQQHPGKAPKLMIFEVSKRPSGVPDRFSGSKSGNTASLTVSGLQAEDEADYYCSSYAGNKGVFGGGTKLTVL
Sequence of Omi-18 (antibody) (VH): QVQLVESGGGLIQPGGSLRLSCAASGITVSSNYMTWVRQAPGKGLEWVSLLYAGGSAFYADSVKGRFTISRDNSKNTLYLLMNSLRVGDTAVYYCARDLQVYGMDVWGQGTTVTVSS
Sequence of Omi-18 (antibody) (VL): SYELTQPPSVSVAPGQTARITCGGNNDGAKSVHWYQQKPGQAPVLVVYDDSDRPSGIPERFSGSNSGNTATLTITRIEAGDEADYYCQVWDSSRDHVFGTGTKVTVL
Sequence of Omi-12 (antibody) (VH): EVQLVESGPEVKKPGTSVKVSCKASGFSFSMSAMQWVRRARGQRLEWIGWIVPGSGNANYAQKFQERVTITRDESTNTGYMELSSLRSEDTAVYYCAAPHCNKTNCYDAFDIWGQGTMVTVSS
Sequence of Omi-12 (antibody) (VL): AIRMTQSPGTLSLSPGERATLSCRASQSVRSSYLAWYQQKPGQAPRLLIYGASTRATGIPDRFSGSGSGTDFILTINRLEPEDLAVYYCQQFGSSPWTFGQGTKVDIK

Substance: Omi-42 (antibody)
- pseudovirus neutralisation IC50 [1]: 3 ng/mL
- pseudovirus neutralisation IC50 [2]: 21 ng/mL
- Pseudovirus - IC50 [3]: 6 ng/mL
- IC50, authentic virus neutralization [4]: 11 ng/mL
- pseudovirus neutralisation IC50 [5]: 7 ng/mL
- Authentic virus-IC50 [6]: 14 ng/mL
- IC50, pseudovirus neutralization [7]: 25 ng/mL
- Pseudovirus - IC50 [8]: 7 ng/mL
- Pseudovirus - IC50 [9]: 21 ng/mL
- IC50, authentic virus neutralization [10]: 17 ng/mL
- IC50, pseudovirus neutralization [10]: 6 ng/mL
- Authentic virus-IC50 [11]: 24 ng/mL
- Authentic virus-IC50 [12]: 13 ng/mL
- Authentic virus-IC50 [13]: 19 ng/mL
- IC50, authentic virus neutralization [13]: 19 ng/mL
- pseudovirus neutralisation IC50 [14]: 13 ng/mL
- IC50, authentic virus neutralization [15]: 24 ng/mL
- pseudovirus neutralisation IC50 [16]: 6 ng/mL
- Pseudovirus - IC50 [17]: 25 ng/mL
- IC50, authentic virus neutralization [18]: 14 ng/mL
- Authentic virus-IC50 [19]: 11 ng/mL
- pseudovirus neutralisation IC50 [20]: 3 ng/mL
- IC50, authentic virus neutralization [21]: 13 ng/mL
- pseudovirus neutralisation IC50 [22]: 25 ng/mL
- Authentic virus-IC50 [23]: 16 ng/mL
- IC50, authentic virus neutralization [23]: 16 ng/mL
- IC50, pseudovirus neutralization [23]: 13 ng/mL
- Pseudovirus - IC50 [23]: 13 ng/mL
- IC50, pseudovirus neutralization [24]: 7 ng/mL
- IC50, pseudovirus neutralization [25]: 13 ng/mL
- pseudovirus neutralisation IC50 [26]: 21 ng/mL
- IC50, authentic virus neutralization [27]: 31 ng/mL
- IC50, pseudovirus neutralization [27]: 21 ng/mL
- pseudovirus neutralisation IC50 [28]: 13 ng/mL
- IC50, pseudoviral neutralization [29]: 18 ng/mL
- IC50, pseudoviral neutralization [30]: 11 ng/mL
- IC50, pseudoviral neutralization [31]: 13 ng/mL
- IC50, pseudoviral neutralization [32]: 10 ng/mL
- IC50, pseudoviral neutralization [33]: 3 ng/mL
- IC50, pseudoviral neutralization [34]: 21 ng/mL
- IC50, pseudoviral neutralization [35]: 10 ng/mL
- IC50, pseudoviral neutralization [36]: 13 ng/mL

Substance: Omi-12 (antibody)
- pseudovirus neutralisation IC50 [1]: 3 ng/mL
- pseudovirus neutralisation IC50 [2]: 3 ng/mL
- Pseudovirus - IC50 [3]: 2 ng/mL
- IC50, authentic virus neutralization [4]: 6 ng/mL
- pseudovirus neutralisation IC50 [5]: 2 ng/mL
- Authentic virus-IC50 [6]: 4 ng/mL
- IC50, pseudovirus neutralization [7]: 6 ng/mL
- Pseudovirus - IC50 [8]: 2 ng/mL
- Pseudovirus - IC50 [9]: 3 ng/mL
- IC50, authentic virus neutralization [10]: 9 ng/mL
- IC50, pseudovirus neutralization [10]: 2 ng/mL
- Authentic virus-IC50 [11]: 3 ng/mL
- Authentic virus-IC50 [12]: 3 ng/mL
- Authentic virus-IC50 [13]: 3 ng/mL
- IC50, authentic virus neutralization [13]: 3 ng/mL
- pseudovirus neutralisation IC50 [14]: 429 ng/mL
- IC50, authentic virus neutralization [15]: 3 ng/mL
- pseudovirus neutralisation IC50 [16]: 2 ng/mL
- Pseudovirus - IC50 [17]: 6 ng/mL
- IC50, authentic virus neutralization [18]: 4 ng/mL
- Authentic virus-IC50 [19]: 6 ng/mL
- pseudovirus neutralisation IC50 [20]: 3 ng/mL
- IC50, authentic virus neutralization [21]: 3 ng/mL
- pseudovirus neutralisation IC50 [22]: 6 ng/mL
- Authentic virus-IC50 [23]: 5 ng/mL
- IC50, authentic virus neutralization [23]: 5 ng/mL
- IC50, pseudovirus neutralization [23]: 6 ng/mL
- Pseudovirus - IC50 [23]: 6 ng/mL
- IC50, pseudovirus neutralization [24]: 2 ng/mL
- IC50, pseudovirus neutralization [25]: 429 ng/mL
- pseudovirus neutralisation IC50 [26]: 3 ng/mL
- IC50, authentic virus neutralization [27]: 10 ng/mL
- IC50, pseudovirus neutralization [27]: 3 ng/mL
- pseudovirus neutralisation IC50 [28]: 6 ng/mL
- IC50, pseudoviral neutralization [29]: 8 ng/mL
- IC50, pseudoviral neutralization [30]: > 10000 ng/mL
- IC50, pseudoviral neutralization [31]: 429 ng/mL
- IC50, pseudoviral neutralization [32]: 74 ng/mL
- IC50, pseudoviral neutralization [33]: 3 ng/mL
- IC50, pseudoviral neutralization [34]: 3 ng/mL
- IC50, pseudoviral neutralization [35]: 4 ng/mL
- IC50, pseudoviral neutralization [36]: 6 ng/mL

Substance: Omi-18 (antibody)
- pseudovirus neutralisation IC50 [1]: 35 ng/mL
- pseudovirus neutralisation IC50 [2]: 5 ng/mL
- Pseudovirus - IC50 [3]: 2 ng/mL
- IC50, authentic virus neutralization [4]: 18 ng/mL
- pseudovirus neutralisation IC50 [5]: 2 ng/mL
- Authentic virus-IC50 [6]: 6 ng/mL
- IC50, pseudovirus neutralization [7]: 6 ng/mL
- Pseudovirus - IC50 [8]: 2 ng/mL
- Pseudovirus - IC50 [9]: 5 ng/mL
- IC50, authentic virus neutralization [10]: 6 ng/mL
- IC50, pseudovirus neutralization [10]: 2 ng/mL
- Authentic virus-IC50 [11]: 38 ng/mL
- Authentic virus-IC50 [12]: 16 ng/mL
- Authentic virus-IC50 [13]: 25 ng/mL
- IC50, authentic virus neutralization [13]: 25 ng/mL
- pseudovirus neutralisation IC50 [14]: 5 ng/mL
- IC50, authentic virus neutralization [15]: 38 ng/mL
- pseudovirus neutralisation IC50 [16]: 2 ng/mL
- Pseudovirus - IC50 [17]: 6 ng/mL
- IC50, authentic virus neutralization [18]: 6 ng/mL
- Authentic virus-IC50 [19]: 18 ng/mL
- pseudovirus neutralisation IC50 [20]: 35 ng/mL
- IC50, authentic virus neutralization [21]: 16 ng/mL
- pseudovirus neutralisation IC50 [22]: 6 ng/mL
- Authentic virus-IC50 [23]: 41 ng/mL
- IC50, authentic virus neutralization [23]: 41 ng/mL
- IC50, pseudovirus neutralization [23]: 8 ng/mL
- Pseudovirus - IC50 [23]: 8 ng/mL
- IC50, pseudovirus neutralization [24]: 2 ng/mL
- IC50, pseudovirus neutralization [25]: 5 ng/mL
- pseudovirus neutralisation IC50 [26]: 5 ng/mL
- IC50, authentic virus neutralization [27]: 7 ng/mL
- IC50, pseudovirus neutralization [27]: 5 ng/mL
- pseudovirus neutralisation IC50 [28]: 8 ng/mL
- IC50, pseudoviral neutralization [29]: 11 ng/mL
- IC50, pseudoviral neutralization [30]: 4800 ng/mL
- IC50, pseudoviral neutralization [31]: 5 ng/mL
- IC50, pseudoviral neutralization [32]: 6 ng/mL
- IC50, pseudoviral neutralization [33]: 35 ng/mL
- IC50, pseudoviral neutralization [34]: 5 ng/mL
- IC50, pseudoviral neutralization [35]: 5 ng/mL
- IC50, pseudoviral neutralization [36]: 8 ng/mL

Reference: US20250154231A1
